Data on one substance can be found in article PMC12199414, “A Self‐Assembling LYTAC Mediates CTGF Degradation and Remodels Inflammatory Tumor Microenvironment for Triple‐Negative Breast Cancer Therapy” (Advanced Science, 2025).

Data set [1] addresses T1, CTGF (Homo sapiens, UniProt P29279).
T1 construct: endogenous in cells; host or cells: BT549 and MDA-MB-231 (human TNBC cell lines)
T1 sequence (P29279 27-349): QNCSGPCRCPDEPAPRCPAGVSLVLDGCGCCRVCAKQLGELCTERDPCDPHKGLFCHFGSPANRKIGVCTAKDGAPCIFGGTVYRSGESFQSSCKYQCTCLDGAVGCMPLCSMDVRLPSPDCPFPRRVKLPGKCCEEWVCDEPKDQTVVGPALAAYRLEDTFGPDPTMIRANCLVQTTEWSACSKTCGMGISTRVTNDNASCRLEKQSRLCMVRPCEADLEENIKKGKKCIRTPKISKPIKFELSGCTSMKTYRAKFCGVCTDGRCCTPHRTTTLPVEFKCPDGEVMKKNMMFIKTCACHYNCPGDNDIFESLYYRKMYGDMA
In words: ELISA of extracellular CTGF in culture media of TNBC cells. In kind it is cell-based. The conditions noted are these: in vitro, BT549 and MDA-MB-231 culture media, 12 h. The protocol:
BT549 and MDA‐MB‐231 cells were treated with various concentrations of CL8‐M6P3 or NanoCLY for 12 h. Extracellular CTGF protein level in conditioned media was quantified by a human CTGF ELISA kit following the manufacturer's instructions (ab261851, Abcam and CSB‐E07875h, Cusabio). Extracellular CCN1, CCN3, and CCN4 protein levels were quantified using respective ELISA kits (HY‐P7842, HY‐P701327, HY‐P78051, MCE) following the manufacturer's instructions (CSB‐EL015956HU, CSB‐EL026119HU, CSB‐E13884h, Cusabio). Additionally, BSP and β‐CTx levels in serum were quantified by ELISA kit following the manufacturer's instructions (BPE10823, BPE10438, lengton).

A short description of data set [2]: Critical micelle concentration with pyrene. In kind it is physicochemical. The settings on record: pyrene fluorescence I390/I380, aqueous solution, sonicated 2 h. The method, then: The CMC value of NanoCLY in an aqueous solution was estimated by pyrene. Pyrene with the final concentration of 6.08 mg L^−1 was added 100 µL to Eppendorf tubes and dried overnight, and was added with 500 µL of various concentrations of NanoCLY (0.001, 0.006, 0.0125, 0.025, 0.05, 0.2, 0.6 mg mL^−1), and sonicated for 2 h. After sonicating, the supernatant samples were collected, and recorded the intensity ratios of I390/I380 by microplate reader Cytation 5 (Biotek, USA). The crossing point of the two linear fittings of the logarithm of NanoCLY concentrations was set as the CMC value.

Data set [3] is described as follows: Stability of nanoparticles in PBS. In kind it is physicochemical. The conditions noted are these: PBS pH 7.4, 37 °C, n = 3.
Data set [4] in a line: GSH response of NanoCLY (HPLC). Format: physicochemical. The protocol: For in vitro experiments, NanoCLY (0.1 mg mL^−1) was incubated with varying concentrations of GSH (0, 2, 25 × 10^−5 M) in PBS at 37 °C for 6 h. After incubation, the aliquots were analyzed by NanoSight (Malvern Panalytical, UK), HPLC (Agilent, USA), and TEM (JEOL, Japan). For in vivo experiments, when tumor volume reached about 200 mm^3, mice were intratumorally injected with 50 µL NanoCLY (2.5 mg kg^−1), or NanoCLY (2.5 mg kg^−1) with a 20‐min preinjection of H2O2 (2.5 × 10^−2 M). Tumors were collected after 4 h for HPLC analysis.
(§1) For the DLS assay, NanoCLY solution was mixed with 50% mouse plasma and incubated for different time periods. After incubation, the aliquots were analyzed using DLS. For the NanoCLY stability assay under simulated plasma GSH conditions, NanoCLY solution was mixed with 1.5 × 10^−6 M GSH or 20% mouse plasma, and was incubated for different time periods. After incubation, the aliquots were diluted and analyzed by HPLC.

The nature of data set [5]: Plasma stability assay. In kind it is in vitro ADME. The settings on record: 50% mouse plasma (DLS) and 20% mouse plasma or 1.5 × 10^−6 M GSH (HPLC), different time periods, n = 3. The method, then: as §1
Data set [6] has as its system MDA‐MB‐231 tumor. In words: Orthotopic xenograft MDA‐MB‐231 tumor model. In kind it is in vivo, BALB/c nude mice. The method, then: For the orthotopic xenograft MDA‐MB‐231 tumor model, 3 × 10^6 cells were injected into the fourth pair of breast pads on the left side of the female nude mice (4–6 weeks old). To evaluate the antitumor effect of NanoCLY in vivo, the mice were treated with 10 mg kg^−1 NanoCLY daily once the tumor volume reached ≈50 mm^3, with CL8 peptide (10 mg kg^−1, daily) and FG‐3019 (30 mg kg^−1, every 3 days) as the positive control group and PBS as negative control group. The dose selection and administration frequency of NanoCLY were based on both references to previously reported protein degrader studies with similar mechanisms and effective concentrations,^[ [28], [54], [58] ^] and our preliminary in vivo dose‐escalation experiments. […] Based on this, 10 mg kg^−1 was selected for subsequent experiments. As for FG‐3019, the 30 mg kg^−1 dose was chosen based on previous studies.^[ [43], [59] ^] To evaluate the advantages of degradation strategies in vivo, the mice were treated with 10 mg kg^−1 NanoCLY daily with Nano@CL8 (10 mg kg^−1, daily) and PBS as control group. To evaluate the antitumor effect of combination therapy in vivo, the mice were treated with NanoCLY (10 mg kg^−1, daily), PTX (5 mg kg^−1, every two days), and PTX plus NanoCLY. […]

With “C12-CPSAAHYL-PEG3-[Pra(M6P)βAla]3-NH2 [NanoCLY, CL8-M6P3 joined to a lauryl chain via disulfide; self-assembling GSH-responsive LYTAC nanoparticle]”, the “extracellular CTGF degraded” value in data set [1] is reported as “≈ 50%”. In addition, in data set [2], the critical micelle concentration (CMC) is 55.1 µg/mL. The “stability in PBS (size and PDI)” value in data set [3] was “at least 72 h”. In addition, the “stability under plasma-mimicking GSH” value in data set [4] (GSH 1.5 × 10⁻⁶ M, analytical HPLC 214 nm) is “remained stable”. The “disulfide linker cleavage at TME-relevant GSH” value in data set [4] (GSH 2 × 10⁻⁵ and 2.5 × 10⁻⁴ M in PBS, 37 °C, 6 h, NanoCLY 0.1 mg mL^−1, analytical HPLC 214 nm) is given as “selective cleavage of the disulfide linker”. Moreover, the “size and structural integrity under plasma conditions” value in data set [5] is “retained its size and structural integrity”. Also, the “tumor growth inhibition (TGI)” value in data set [6] (10 mg kg^−1 daily i.v., n = 6) is 59.62% and ≈ 60%. Also, the tumor inhibition rate result in data set [6] (preliminary in vivo dose-escalation experiments, 10 mg kg^−1) is “over 50%”.
